From patent US20230141962A1 (published 2023)

Tests used:
Test in all cases: phage ELISA
[1] = molecular target: T1, HCoV-HKU1 Spike/S1 Protein (HCoV-HKU1, UniProt Q0ZME7 13-756)
T1 construct: domain: Spike/S1; also called HKU1-HIS
T1 sequence: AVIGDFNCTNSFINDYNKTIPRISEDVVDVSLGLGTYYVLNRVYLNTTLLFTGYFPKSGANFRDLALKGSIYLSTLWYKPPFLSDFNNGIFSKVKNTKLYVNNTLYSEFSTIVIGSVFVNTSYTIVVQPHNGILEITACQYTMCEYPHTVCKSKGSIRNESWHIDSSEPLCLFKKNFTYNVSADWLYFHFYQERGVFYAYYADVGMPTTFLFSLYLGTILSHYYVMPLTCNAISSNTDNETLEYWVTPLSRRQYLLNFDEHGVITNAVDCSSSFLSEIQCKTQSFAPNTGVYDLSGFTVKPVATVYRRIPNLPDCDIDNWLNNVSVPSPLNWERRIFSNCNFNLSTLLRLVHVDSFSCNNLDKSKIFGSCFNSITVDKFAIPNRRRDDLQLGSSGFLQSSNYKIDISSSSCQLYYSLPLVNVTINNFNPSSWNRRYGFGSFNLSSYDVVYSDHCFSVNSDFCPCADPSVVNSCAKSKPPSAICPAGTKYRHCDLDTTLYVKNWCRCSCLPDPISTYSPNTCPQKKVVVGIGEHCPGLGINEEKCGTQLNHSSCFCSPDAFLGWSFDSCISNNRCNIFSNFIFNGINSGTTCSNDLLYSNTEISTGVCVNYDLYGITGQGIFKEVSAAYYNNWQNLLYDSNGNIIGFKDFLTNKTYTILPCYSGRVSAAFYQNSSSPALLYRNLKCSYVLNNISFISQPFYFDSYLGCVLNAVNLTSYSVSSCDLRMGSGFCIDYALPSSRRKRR

[2] = molecular target: T2, HCoV-NL63 Spike/S1 Protein (HCoV-NL63, UniProt Q6Q1S2 19-717)
T2 construct: domain: Spike/S1; also called NL63-HIS
T2 sequence: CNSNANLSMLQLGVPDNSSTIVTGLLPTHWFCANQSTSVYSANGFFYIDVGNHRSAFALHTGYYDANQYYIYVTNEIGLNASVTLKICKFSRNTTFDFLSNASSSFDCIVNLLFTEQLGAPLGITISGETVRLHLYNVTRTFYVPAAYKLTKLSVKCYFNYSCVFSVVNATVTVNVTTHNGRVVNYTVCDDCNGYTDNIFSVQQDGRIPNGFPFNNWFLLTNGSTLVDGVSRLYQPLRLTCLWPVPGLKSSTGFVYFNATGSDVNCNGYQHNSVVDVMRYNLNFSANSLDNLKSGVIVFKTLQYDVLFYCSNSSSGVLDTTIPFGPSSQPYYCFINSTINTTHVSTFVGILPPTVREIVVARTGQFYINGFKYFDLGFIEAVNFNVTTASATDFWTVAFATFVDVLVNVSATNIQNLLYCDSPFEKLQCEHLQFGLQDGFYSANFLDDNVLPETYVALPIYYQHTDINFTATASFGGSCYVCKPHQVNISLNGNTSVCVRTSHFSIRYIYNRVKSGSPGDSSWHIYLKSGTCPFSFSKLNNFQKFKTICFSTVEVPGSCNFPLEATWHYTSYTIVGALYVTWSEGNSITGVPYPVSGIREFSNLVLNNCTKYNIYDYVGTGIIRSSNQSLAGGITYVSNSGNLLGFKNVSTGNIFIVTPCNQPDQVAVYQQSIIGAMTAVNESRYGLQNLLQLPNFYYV

[3] = molecular target: T3, HCoV-229E Spike/S1 Protein (HCoV-229E, UniProt P15423 16-536)
T3 construct: domain: Spike/S1; also called 229E-HIS
T3 sequence: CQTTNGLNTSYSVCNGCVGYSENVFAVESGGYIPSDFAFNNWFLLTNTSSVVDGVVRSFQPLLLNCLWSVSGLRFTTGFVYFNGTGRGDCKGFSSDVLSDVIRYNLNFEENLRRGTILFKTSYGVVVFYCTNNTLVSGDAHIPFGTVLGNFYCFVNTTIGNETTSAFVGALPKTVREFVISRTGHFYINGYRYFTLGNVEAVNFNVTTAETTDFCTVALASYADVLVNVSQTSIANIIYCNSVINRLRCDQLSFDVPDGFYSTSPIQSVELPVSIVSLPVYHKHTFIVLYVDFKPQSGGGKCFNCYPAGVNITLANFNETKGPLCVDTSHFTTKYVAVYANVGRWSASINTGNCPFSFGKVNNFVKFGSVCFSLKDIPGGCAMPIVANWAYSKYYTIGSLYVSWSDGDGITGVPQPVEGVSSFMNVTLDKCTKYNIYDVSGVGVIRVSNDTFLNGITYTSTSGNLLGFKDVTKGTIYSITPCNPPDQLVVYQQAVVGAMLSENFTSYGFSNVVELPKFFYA

[4] = molecular target: T4, HCoV-OC43 Spike Protein (HCoV-OC43, UniProt P36334 14-1297)
T4 construct: also called OC43-HIS
T4 sequence: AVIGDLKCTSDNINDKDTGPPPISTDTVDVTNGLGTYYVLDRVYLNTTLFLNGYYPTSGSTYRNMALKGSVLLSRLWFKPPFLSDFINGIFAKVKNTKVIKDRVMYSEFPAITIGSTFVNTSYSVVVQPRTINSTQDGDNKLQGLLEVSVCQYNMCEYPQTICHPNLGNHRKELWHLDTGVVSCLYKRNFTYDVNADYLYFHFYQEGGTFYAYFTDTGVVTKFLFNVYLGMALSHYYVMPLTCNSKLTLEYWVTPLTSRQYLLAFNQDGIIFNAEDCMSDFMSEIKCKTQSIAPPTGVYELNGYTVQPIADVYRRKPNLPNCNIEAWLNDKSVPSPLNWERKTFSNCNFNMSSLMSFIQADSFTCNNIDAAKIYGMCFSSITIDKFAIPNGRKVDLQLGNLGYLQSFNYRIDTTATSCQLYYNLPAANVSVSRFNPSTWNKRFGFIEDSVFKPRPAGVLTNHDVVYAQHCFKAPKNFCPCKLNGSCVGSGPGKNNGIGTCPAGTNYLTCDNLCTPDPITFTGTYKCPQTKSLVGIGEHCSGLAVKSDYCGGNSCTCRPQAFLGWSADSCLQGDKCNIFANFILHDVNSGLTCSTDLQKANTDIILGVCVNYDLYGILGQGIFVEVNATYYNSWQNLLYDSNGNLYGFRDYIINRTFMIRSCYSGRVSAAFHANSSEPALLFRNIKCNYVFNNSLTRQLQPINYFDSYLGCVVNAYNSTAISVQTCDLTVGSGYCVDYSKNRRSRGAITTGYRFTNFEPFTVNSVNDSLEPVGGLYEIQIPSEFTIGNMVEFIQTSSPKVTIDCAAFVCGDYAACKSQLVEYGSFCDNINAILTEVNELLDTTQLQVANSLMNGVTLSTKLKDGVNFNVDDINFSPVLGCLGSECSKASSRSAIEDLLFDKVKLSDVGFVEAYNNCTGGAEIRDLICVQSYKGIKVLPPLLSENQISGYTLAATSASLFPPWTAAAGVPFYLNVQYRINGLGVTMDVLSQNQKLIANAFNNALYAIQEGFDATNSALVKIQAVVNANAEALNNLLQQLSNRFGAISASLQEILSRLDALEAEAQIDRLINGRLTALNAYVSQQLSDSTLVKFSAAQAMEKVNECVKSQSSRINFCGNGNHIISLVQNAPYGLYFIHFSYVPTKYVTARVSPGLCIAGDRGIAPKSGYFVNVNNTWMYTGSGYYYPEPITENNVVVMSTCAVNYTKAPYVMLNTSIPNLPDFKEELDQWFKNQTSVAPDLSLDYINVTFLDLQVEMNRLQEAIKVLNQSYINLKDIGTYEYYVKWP

Measured: binding result

B1: phage clone #19 (scFv)
scFv: QSALTQPASVSGSPGQSITISCTGTSSDVGGYNYVSWYQQHPGKVPKLMIYEVSNRPSGVSNRFSGSKSGNTASLTISGLQAEDEADYYCSSYTSGDTLVFGGGTKVTVLGSRGGGGSGGGGSGGGGSLEMAELQLVESGGGVVQPGRSPRLSCAASGFTFSNYPMHWVRQAPGKGLEWVAVISYDGNHKYYADSLEGRFSISRDNSKNTLYLQMNSLTAADTAVYYCARGGGMGGLDSWGQGTLVTVSSTSGQAGQ
no binding: all assays above

B2: phage clone #20 (scFv)
scFv: SYVLTQPPSASGTPGQRVTISCSGSSSNIGSNTVNWYQQLPGTAPKLLIYSNNQRPSGVPDRFSASKSGTSASLAISGFQSEDEADYYCAAWDDSLDGYVFGTGTKVTVLGSRGGGGSGGGGSGGGGSLEMAEVQLVQSGAEVKKPGESLKISCKGSGYSFPSYWIGWVRQMPGKGLEWMGIIYPGDSDTRYSPSFQGQVTISADKSISTAYLQWSSLKASDTAMYYCARGSYTYMGGSYDYWGQGTLVTVSSTSGQAGQ
no binding: all assays above

B3: phage clone #30 (scFv)
scFv: QSALTQPPSASGSPGQSVTISCTGTSSDVGGYDYVSWYQQHPGKAPKLMIYEVSKRPSGVSNRFSGSKSGNTASLTISGLQAEDEADYYCSSYTSSSTFPYVFGTGTKVTVLGSRGGGGSGGGGSGGGGSLEMAEVQLVESGGGLEQPGGSLRLSCAASGFTFSSYAMSWVRQAPGKGLEWVSAISASGNSTFYADSVKGRFTISRDNSKHTLDLQMNSLRADDTAVYYCARNSDVWGQGTLVTVSSTSGQAGQ
no binding: all assays above

B4: phage clone #13 (scFv)
scFv: QSVLTQPPSASGTPGQRVTISCSGSSSNIGSNYVYWYQQLPGTAPKLLIYRNNQRPSGVPDRFSGSKSGTSASLAISGLRSEDEADYYCAAWDDSLSGPNYVFGTGTKVTVLGSRGGGGSGGGGSGGGGSLEMAQVQLVQSGAEVKKPGSSVKVSCKASGGTFSSYAISWVRQAPGQGLEWMGWISGYNGNTNYAQKLQGRVTMTTDTSTSTAYMELRSLRSDDTAVYYCARTGWSKGEKVTTWGEWFYVDYWGQGTLVTVSSTSGQAGQ
no binding: all assays above
